Experimental findings from the RNAGym collection of RNA variant scans (doi:10.7554/elife.90254) are described below.

First the molecules themselves.
B1: LINE1-full (parent)
chain: UACGUAGGUGGUUUUCCCCUGAUAGUGCUAAGGGGGCCUGGAAGUUUGGACUGGGCAGAGCUCAACACAGCGUGGCAAAGUGGCUGUGGCUAGACUGCCUCUCUGGAUUCCUCGUCACUCAGCAGGGCAUCUCUGAGAGAAAUGCC

In this series the parent is B1. Put plainly: self-cleavage, relative activity (ratio to wild type); higher = more cleavage; in vitro, sequencing; the parent is a self-cleaving ribozyme.
Turning to A6U A43G, the self-cleavage is 1.01.

As to A6U A43U, the self-cleavage worked out at 0.89. Next, U5C G34U: 0.82; A6G U20G: 1.34; U5C U46A: 1.29. Turning to A6G G86A, the self-cleavage came to 0.31. Next, G4A U130A: 0.55; A6G A43G: 1.35.

As for U5A A124U, the self-cleavage is 1.2. Next, U5A A124G: 1.75. The figure for U5A C98U is 0.53; for U5C G36C it is 1.25; for A6G U26A it is 0.68. The figure for U5G A138G is 0.2. With G4A U46A, the self-cleavage amounted to 1.17.

Turning to U5A U39A, the self-cleavage is 0.8. The figure for G7A G54A is 0.4; for G7A A141G it is 0.69. As to U5C A43U, the self-cleavage was found to be 1.48. As for U5C A43G, the self-cleavage stood at 1.03. Next, U5C U134C: 0.33; U5C U134A: 0.62; A6G U143A: 0.89. Next, U5C U87A: 0.15; U5A U26A: 1.37; U5C A94C: 0. Next, U5C A94U: 0.76.

As for A6U U104C, the self-cleavage was 1.02. The figure for G4U G80C is 1.07; for A6G G60U it is 0.19. Next, A6G A42U: 0.82; A6G A42G: 1.15; U5C A64U: 0.49. Next, A6U A117U: 1.53. On to A6U A117G, for which the self-cleavage is 0.3. Next, U5C U81C: 0.8; U5G U100C: 1.15. Next, G4A U102C: 0.82. The figure for G4A U102G is 0.26; for A6G C111U it is 1; for A6U U26A it is 0.87. In the case of A6U U26C, the self-cleavage came to 0.94. Next, U5C G75A: 1.15; A6U G72A: 1.2; U5A A79U: 0.77. The figure for U5A A79G is 0.87; for A6G G139U it is 0.96. On to U5C U91G, for which the self-cleavage was determined as 0. Next, U5A A121G: 0.84; U5C U23C: 0.83; U5A U115C: 0.5. As to U5C U73A, the self-cleavage amounted to 1.74. Next, G4C U115A: 1.51; G7A U9C: 0.68; U5A A22G: 0.73. With A6U G41A, the self-cleavage was found to be 1.52. Next, A6U A142C: 0.28. The figure for A6U A142G is 0.81; for G4C A65G it is 0.08; for A6U G36A it is 0.88. The figure for U5G A59G is 0.19. Consider U5A U15C, for which the self-cleavage worked out at 0.94.

On to U5C U132A, for which the self-cleavage was found to be 1.98.

For G4U U130A, the self-cleavage came out at 1.16. Next, A6G G11C: 0.31.

As for A6G G11A, the self-cleavage stood at 2.36.

On to G4U C110A, for which the self-cleavage is 1.56. On to U5C C120U, for which the self-cleavage stood at 1.26.

As for G4U U20C, the self-cleavage came out at 1.33.

For A6G A59G, the self-cleavage turned out to be 0.1. The figure for U5A A59G is 0.11.

For the variant U5A A59U, the self-cleavage is 0.52. Next, A6U A92G: 0.27; A6U A92U: 0.47.

As for U5A U20A, the self-cleavage turned out to be 1.12.

For the variant U5G U39C, the self-cleavage came out at 0.63.

Regarding U5C C66U, the self-cleavage turned out to be 0.13. Turning to U5A U46C, the self-cleavage stood at 1.03. Next, U5A U46A: 0.82; U5A G40A: 1.01; A6U C66U: 0.09. Next, G4C U130A: 1.1.

Consider G7A C56U, for which the self-cleavage is 0.17. The figure for A6G G55U is 0.41. On to A6G U47A, for which the self-cleavage came out at 0.91.

Turning to A6G U47C, the self-cleavage stood at 0.53.

As for A6U A67U, the self-cleavage was determined as 0.22. Next, A6U A67G: 0.49; A6G A121G: 1.14. Next, A6G A121U: 0.99; U5C A78G: 1.18; A6U A30G: 1.01. As for A6U A30U, the self-cleavage stood at 0.58.

As for A6G U14C, the self-cleavage came out at 0.61. For A6G C66U, the self-cleavage was found to be 0.15. Take U5A G44A: the self-cleavage is 0.81.

Take A6U A24G: the self-cleavage turned out to be 1.13.

As to U5C C128U, the self-cleavage is 1.53. Next, U5C A69G: 0.78; G7A G75A: 0.95; A6G A77U: 0.92. The figure for A6G A77G is 1.18; for U5G A64C it is 0.19.

U5C A65U: the self-cleavage is 0.26.

Regarding U5C A65G, the self-cleavage is 0.15. Next, G7A: 1.08. Next, U5A A50G: 0.78; U5A U112C: 0.71; A6G G32C: 0.65.

On to A6G A141G, for which the self-cleavage turned out to be 1.03.

On to G4C, for which the self-cleavage was 1.17.

Turning to G4U, the self-cleavage amounted to 1.25.

Consider A6U U62A, for which the self-cleavage was determined as 0.06.

As to A6U A124U, the self-cleavage was determined as 1.51. U5C G35U: the self-cleavage was found to be 1.19.

On to A6U U13C, for which the self-cleavage was 1.25. The figure for G7A U23A is 0.85; for G4U C61U it is 0.08; for G4C U12G it is 0.93. Next, A6G U119C: 0.73; G4C A107G: 0.29. For the variant U5C A117G, the self-cleavage stood at 0.81.

As to U5C A117U, the self-cleavage came out at 1.03. The figure for U5A U85C is 0.2; for U5A U85G it is 0.16. Take A6U U115C: the self-cleavage was 1.28. The figure for U5A U14C is 0.85; for U5A U14A it is 1.15. Next, A6C U134C: 0.61; U5C C110A: 1.19. Next, A6U G137A: 1.53. In the case of U5C A140U, the self-cleavage is 0.86. The figure for G4A U108G is 0.96. The figure for U5C A50U is 0.64; for U5C A136G it is 1.62; for U5C U14C it is 0.99.

Turning to A6G U9C, the self-cleavage was determined as 1.16. The figure for U5C G60A is 0.08. The figure for U5A A78U is 1.89. With G4U U73C, the self-cleavage amounted to 2.45.

For A6U A77G, the self-cleavage is 1.51. The figure for G4C U87C is 0.74; for G4U U100C it is 1.73. Consider A6G U13C, for which the self-cleavage came out at 0.93.

In the case of U5C A57G, the self-cleavage worked out at 0.93.

As for U5C A57U, the self-cleavage is 0.29. Next, A6G U134A: 0.52; A6G U134C: 0.85.

G4A U96A: the self-cleavage is 0.08. In the case of A6U U73C, the self-cleavage was found to be 1.21. The figure for A6U G53A is 0.9. The figure for U5C C38A is 1.79. On to U5C C18A, for which the self-cleavage came out at 0.67.

For the variant U5A G32A, the self-cleavage was 0.93. The figure for A6G U73A is 1.11. For U5C C84U, the self-cleavage came out at 0.18. As to G4A U100C, the self-cleavage turned out to be 1.21. The figure for A6G A136G is 1.17; for A6G G83A it is 0.26. The figure for A6U A64C is 0.68; for G4C U15C it is 1.18. The figure for G4C G135A is 0.56; for A6G U132C it is 0.9; for A6G U15C it is 0.84. In the case of A6G U15A, the self-cleavage turned out to be 0.58.

For the variant U5A A31U, the self-cleavage amounted to 1.1. Next, U5A A31G: 0.82.
